Results from paper PMC3272482.
Where “and” joins values, the source holds several entries; their conditions need not be identical. Identical values can stand only once. Like-named read-outs stand apart in the source and are kept apart here.

How the values were obtained:
Test in all cases: cryo-EM structure
[1] = target: Escherichia coli DegQ, protease deficient S187A mutant (Escherichia coli) (UniProt P39099)
[2] = target: Escherichia coli DegQ, protease deficient S187A mutant (Escherichia coli) (UniProt P39099); remark: listed apart in the source
[3] = target: Escherichia coli DegQ, protease deficient S187A mutant (Escherichia coli) (UniProt P39099); remark: listed apart in the source

stoichiometry N [1]: 24 protomers and 12 protomers | stoichiometry N [2]: 12 protomers | stoichiometry N [3]: 12 protomers
Substance: Escherichia coli DegQ, protease deficient S187A mutant (from UniProt P39099 28-455) (enzyme)
